# T1: hGITR (human, UniProt Q9Y5U5)
# T1 construct: extracellular domain, E. coli lysate captured on a His capture plate; Target named only on the sheet; the construct is not described in the text
# T1 sequence (extracellular domain, looked up): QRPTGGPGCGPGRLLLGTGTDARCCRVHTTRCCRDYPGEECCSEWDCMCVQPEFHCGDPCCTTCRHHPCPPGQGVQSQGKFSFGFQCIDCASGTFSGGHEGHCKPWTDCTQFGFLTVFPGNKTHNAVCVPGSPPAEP
# T2: OX40 extracellular domain (TNFRSF4, Gly33-Gly212) (UniProt P43489 33-212)
# T2 construct: ECD cloned into pBadThioTopo; E. coli lysate on His capture plates
# T2 sequence (looked up): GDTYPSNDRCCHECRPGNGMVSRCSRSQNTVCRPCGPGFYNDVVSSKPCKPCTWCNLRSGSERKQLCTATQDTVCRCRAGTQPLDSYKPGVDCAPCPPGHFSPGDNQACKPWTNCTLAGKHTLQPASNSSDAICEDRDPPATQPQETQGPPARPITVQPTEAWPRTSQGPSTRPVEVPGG
# T3: OPG (TNFRSF11B, Lys17-Ile197) (UniProt O00300 17-197)
# T3 construct: range 17-197; ECD cloned into pBadThioTopo; E. coli lysate on His capture plates
# T3 sequence (looked up): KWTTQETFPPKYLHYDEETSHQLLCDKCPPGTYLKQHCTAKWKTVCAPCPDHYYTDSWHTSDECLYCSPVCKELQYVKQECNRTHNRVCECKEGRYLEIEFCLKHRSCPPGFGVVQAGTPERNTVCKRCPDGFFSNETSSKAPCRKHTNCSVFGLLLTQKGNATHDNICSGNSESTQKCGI
# T4: FAS extracellular domain (TNFRSF6, Ser20-Gly175) (UniProt P25445 20-175)
# T4 construct: ECD cloned into pBadThioTopo; E. coli lysate on His capture plates
# T4 sequence (looked up): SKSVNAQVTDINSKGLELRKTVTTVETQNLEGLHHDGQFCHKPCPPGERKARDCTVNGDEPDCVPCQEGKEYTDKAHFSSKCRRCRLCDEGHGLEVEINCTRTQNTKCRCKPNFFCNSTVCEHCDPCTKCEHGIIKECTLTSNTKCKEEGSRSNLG
# T5: DcR3 (TNFRSF6B, Val27-Ala176) (UniProt O95407 27-176)
# T5 construct: range 27-176; ECD cloned into pBadThioTopo; E. coli lysate on His capture plates
# T5 sequence (looked up): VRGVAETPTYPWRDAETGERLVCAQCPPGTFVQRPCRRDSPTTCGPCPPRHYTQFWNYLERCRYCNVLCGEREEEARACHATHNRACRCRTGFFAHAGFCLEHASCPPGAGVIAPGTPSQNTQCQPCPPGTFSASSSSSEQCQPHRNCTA
# T6: DcR2 extracellular domain (TNFRSF10D, Thr57-Thr198) (UniProt Q9UBN6 57-198)
# T6 construct: range 57-198; ECD cloned into pBadThioTopo; E. coli lysate on His capture plates
# T6 sequence (looked up): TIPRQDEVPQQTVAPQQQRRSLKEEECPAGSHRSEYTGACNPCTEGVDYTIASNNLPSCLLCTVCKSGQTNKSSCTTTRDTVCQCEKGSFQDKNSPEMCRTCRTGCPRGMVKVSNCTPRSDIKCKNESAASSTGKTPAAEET
# T7: TNFR1 extracellular domain (TNFRSF1A, Leu34-Thr211) (UniProt P19438 34-211)
# T7 construct: range 34-211; ECD cloned into pBadThioTopo; E. coli lysate on His capture plates
# T7 sequence (looked up): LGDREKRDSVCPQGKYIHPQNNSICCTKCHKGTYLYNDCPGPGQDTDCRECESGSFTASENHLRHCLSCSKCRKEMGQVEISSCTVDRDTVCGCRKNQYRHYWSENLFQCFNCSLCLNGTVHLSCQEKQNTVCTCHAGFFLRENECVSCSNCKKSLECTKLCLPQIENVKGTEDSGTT
# B1: 7A12 tri (trivalent anti-DR5 NB construct) (VHH)
# chain: EVQLVESGGGLVQAGGSLRLSCAASGRTFSNYAMGWFRQAPGKEREFVAALNWSGGSTYYVDSVKGRFTISRDNAKNTVYLQMNSLKPEDTAVYYCAAAGSFSLGGRPYGDDYWGKGTLVTVSSGGGGSGGGGSGGGGSGGGGSGGGGSGGGGSGGGGSEVQLVESGGGLVQAGGSLRLSCAASGRTFSNYAMGWFRQAPGKEREFVAALNWSGGSTYYVDSVKGRFTISRDNAKNTVYLQMNSLKPEDTAVYYCAAAGSFSLGGRPYGDDYWGKGTLVTVSSGGGGSGGGGSGGGGSGGGGSGGGGSGGGGSGGGGSEVQLVESGGGLVQAGGSLRLSCAASGRTFSNYAMGWFRQAPGKEREFVAALNWSGGSTYYVDSVKGRFTISRDNAKNTVYLQMNSLKPEDTAVYYCAAAGSFSLGGRPYGDDYWGKGTLVTVSS
# notes: three VHH units in one chain joined by GlySer linkers; not shown: CMYC-HIS6 tag
# B2: 11D1 tri (trivalent anti-DR5 NB construct) (VHH)
# chain: EVQLVESGGGLVQPGGSLRLSCAASGSIDSINNMGWYRQAPGKQRELVAEITPRGRTNYADSEKSRFTISRDNAKRTVNLQMNSLKPEDTAVYYCNAEVRERGTSWYRPDYWGQGTQVTVSSGGGGSGGGGSGGGGSGGGGSGGGGSGGGGSGGGGSEVQLVESGGGLVQPGGSLRLSCAASGSIDSINNMGWYRQAPGKQRELVAEITPRGRTNYADSEKSRFTISRDNAKRTVNLQMNSLKPEDTAVYYCNAEVRERGTSWYRPDYWGQGTQVTVSSGGGGSGGGGSGGGGSGGGGSGGGGSGGGGSGGGGSEVQLVESGGGLVQPGGSLRLSCAASGSIDSINNMGWYRQAPGKQRELVAEITPRGRTNYADSEKSRFTISRDNAKRTVNLQMNSLKPEDTAVYYCNAEVRERGTSWYRPDYWGQGTQVTVSS
# notes: as for B1
# B3: 11H6 tri (trivalent anti-DR5 NB construct) (VHH)
# chain: EVQLVESGGGLVQPGGSLRLSCAASGTFDKINNMGWYRQAPGKQRDLVAQITPGGITDYADSVKGRFTISRDNAKDTMYLQMNSLKPEDTAVYFCNAEILKRAYIDVYVNYWGQGTQVTVSSGGGGSGGGGSGGGGSGGGGSGGGGSGGGGSGGGGSEVQLVESGGGLVQPGGSLRLSCAASGTFDKINNMGWYRQAPGKQRDLVAQITPGGITDYADSVKGRFTISRDNAKDTMYLQMNSLKPEDTAVYFCNAEILKRAYIDVYVNYWGQGTQVTVSSGGGGSGGGGSGGGGSGGGGSGGGGSGGGGSGGGGSEVQLVESGGGLVQPGGSLRLSCAASGTFDKINNMGWYRQAPGKQRDLVAQITPGGITDYADSVKGRFTISRDNAKDTMYLQMNSLKPEDTAVYFCNAEILKRAYIDVYVNYWGQGTQVTVSS
# notes: as for B1
# Biological target: T8, cell-bound human DR5 (Colo205 and other human cell lines) (human, UniProt O14763 56-440)
# Experiment: cell-based or functional assay
Binder,"IC50, cell survival, A549","IC50, cell survival, ARPE-19","IC50, cell survival, H226","IC50, cell survival, H2052","IC50, cell survival, H2122","IC50, cell survival, Huvec","IC50, cell survival, IMR-90","IC50, cell survival, Jurkat","IC50, cell survival, M30","IC50, cell survival, MiaPaCa-2"
B1,≥ 20 nM,≥ 20 nM,0.03 nM,0.064 nM,0.008 nM,≥ 20 nM,≥ 20 nM,≥ 20 nM,≥ 20 nM,≥ 20 nM
B2,≥ 20 nM,≥ 20 nM,0.03 nM,0.015 nM,0.004 nM,≥ 20 nM,≥ 20 nM,≥ 20 nM,≥ 20 nM,≥ 20 nM
B3,≥ 20 nM,≥ 20 nM,≥ 20 nM,0.36 nM,0.012 nM,≥ 20 nM,≥ 20 nM,≥ 20 nM,≥ 20 nM,≥ 20 nM

# Same assay, conditions: not given
Binder,"IC50, cell survival, Molt4","IC50, cell survival, Panc-1"
B1,≥ 20 nM,≥ 20 nM
B2,≥ 20 nM,≥ 20 nM
B3,≥ 20 nM,≥ 20 nM

# Biological target: T8, cell-bound human DR5 (Colo205 and other …)
# Experiment: cell-based or functional assay
# Remark: another data set of the same source
row,Binder,"IC50, cell survival, Colo205"
1,B1,0.12 nM
2,B2,0.111 nM
3,B3,0.0458 nM

# Biological target: cynomolgus DR5-Fc fusion protein (cyno DR5 amino acids 56 to 213 fused with human IgG1 Fc) (cynomolgus; human)
# Experiment: SPR (Biacore), CM5 chip coated with cynomolgus DR5-Fc, 1 to 100 nM NB construct
row,Kd,Binder
1,< 0.03 nM,B1
2,< 0.2 nM,B2
3,< 0.3 nM,B3

# Biological target: T1, hGITR
# Experiment: ELISA, receptor ECD from E. coli lysate on His capture plate;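 also: binding specificity screen across TNF receptor superfamily ectodomains, anti-V5 detection as expression reference, primary antibody incubation 1 h at room temperature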
row,binding result,Binder
1,no binding (tested: not stated),B1
2,no binding (tested: not stated),B2
3,no binding (tested: not stated),B3

# Biological target: T9, BAFFR extracellular domain (TNFRSF13C, Met1-Gly64) (UniProt Q96RJ3 1-64)
# T9 construct: range 1-64; ECD cloned into pBadThioTopo; E. coli lysate on His capture plates
# Experiment: as above
# T9 sequence (Q96RJ3 1-64 limits assumed): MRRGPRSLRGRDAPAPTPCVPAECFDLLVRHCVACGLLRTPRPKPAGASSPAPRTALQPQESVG
row,binding result,Binder
1,no binding (tested: not stated),B1
2,no binding (tested: not stated),B2
3,no binding (tested: not stated),B3

# Biological target: T10, CD40 extracellular domain (TNFRSF5, Val18-Leu192) (UniProt P25942 18-192)
# T10 construct: range 18-192; ECD cloned into pBadThioTopo; E. coli lysate on His capture plates
# Experiment: as above
# T10 sequence (P25942 18-192 limits assumed): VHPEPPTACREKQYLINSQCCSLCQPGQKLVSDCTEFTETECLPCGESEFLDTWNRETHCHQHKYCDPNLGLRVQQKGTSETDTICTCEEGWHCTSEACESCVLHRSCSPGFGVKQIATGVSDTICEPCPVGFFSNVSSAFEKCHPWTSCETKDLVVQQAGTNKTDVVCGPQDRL
row,binding result,Binder
1,no binding (tested: not stated),B1
2,no binding (tested: not stated),B2
3,no binding (tested: not stated),B3

# Biological target: T2, OX40 extracellular domain (TNFRSF4, …)
# Experiment: as above
row,binding result,Binder
1,no binding (tested: not stated),B1
2,no binding (tested: not stated),B2
3,no binding (tested: not stated),B3

# Biological target: T11, CD137 extracellular domain (TNFRSF9, Glu19-Ile188) (UniProt Q07011 19-188)
# T11 construct: range 19-188; ECD cloned into pBadThioTopo; E. coli lysate on His capture plates
# Experiment: as above
# T11 sequence (Q07011 19-188 limits assumed): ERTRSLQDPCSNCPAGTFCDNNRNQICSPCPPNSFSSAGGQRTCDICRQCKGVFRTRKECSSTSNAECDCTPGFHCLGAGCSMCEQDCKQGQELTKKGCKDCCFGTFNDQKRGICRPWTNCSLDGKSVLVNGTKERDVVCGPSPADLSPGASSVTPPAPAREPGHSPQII
row,binding result,Binder
1,no binding (tested: not stated),B1
2,no binding (tested: not stated),B2
3,no binding (tested: not stated),B3

# Biological target: T3, OPG (TNFRSF11B, Lys17-Ile197)
# Experiment: as above
row,binding result,Binder
1,no binding (tested: not stated),B1
2,no binding (tested: not stated),B2
3,no binding (tested: not stated),B3

# Biological target: T12, CD27 extracellular domain (TNFRSF7, Thr21-Ser187) (UniProt P26842 21-187)
# T12 construct: range 21-187; ECD cloned into pBadThioTopo; E. coli lysate on His capture plates
# Experiment: as above
# T12 sequence (P26842 21-187 limits assumed): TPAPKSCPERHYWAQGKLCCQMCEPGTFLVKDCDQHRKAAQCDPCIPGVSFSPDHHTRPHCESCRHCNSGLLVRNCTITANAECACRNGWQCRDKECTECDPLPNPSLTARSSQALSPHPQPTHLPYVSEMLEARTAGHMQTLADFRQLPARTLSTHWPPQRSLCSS
row,binding result,Binder
1,no binding (tested: not stated),B1
2,no binding (tested: not stated),B2
3,no binding (tested: not stated),B3

# Biological target: T4, FAS extracellular domain (TNFRSF6, …)
# Experiment: as above
row,binding result,Binder
1,no binding (tested: not stated),B1
2,no binding (tested: not stated),B2
3,no binding (tested: not stated),B3

# Biological target: T5, DcR3 (TNFRSF6B, Val27-Ala176)
# Experiment: as above
row,binding result,Binder
1,no binding (tested: not stated),B1
2,no binding (tested: not stated),B2
3,no binding (tested: not stated),B3

# Biological target: T6, DcR2 extracellular domain (TNFRSF10D, …)
# Experiment: as above
row,binding result,Binder
1,no binding (tested: not stated),B1
2,no binding (tested: not stated),B2
3,no binding (tested: not stated),B3

# Biological target: T13, TNFR3 extracellular domain (TNFRSF3, Pro30-Thr224) (UniProt P36941 30-224)
# T13 construct: range 30-224; ECD cloned into pBadThioTopo; E. coli lysate on His capture plates
# Experiment: as above
# T13 sequence (P36941 30-224 limits assumed): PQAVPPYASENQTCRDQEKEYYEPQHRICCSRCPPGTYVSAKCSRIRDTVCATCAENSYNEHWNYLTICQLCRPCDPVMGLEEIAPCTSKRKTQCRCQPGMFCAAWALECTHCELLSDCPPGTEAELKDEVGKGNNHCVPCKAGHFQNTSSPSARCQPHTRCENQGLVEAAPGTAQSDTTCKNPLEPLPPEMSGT
row,binding result,Binder
1,no binding (tested: not stated),B1
2,no binding (tested: not stated),B2
3,no binding (tested: not stated),B3

# Biological target: T7, TNFR1 extracellular domain (TNFRSF1A, …)
# Experiment: as above
row,binding result,Binder
1,no binding (tested: not stated),B1
2,no binding (tested: not stated),B2
3,no binding (tested: not stated),B3

# — patent publication US20150259426A1 (Novartis, published 2015)
